Assay [1] addresses T1, human CLIC1 protein located on the plasma membrane (tmCLIC1) (human, UniProt O00299 2-241). As to the kind of experiment: not specified (same experimental models as tmCLIC1omab).
A further assay concerns the target T2, QVELF sequence (human).
T2 peptide: QVELF
As to the kind of experiment: PEPperMAP linear peptide microarray. On the procedure: (§1) PEPperMAP epitope Mapping® of the tmCLIC1omab antibody was conducted against the peptide […] (amino acids 3-24 of the CLIC1 protein) translated to linear peptides consisting of 5, 10 and 15 amino acids with peptide-peptide overlaps of 4, 9 and 14 amino acids for high-resolution epitope data. The resulting CLIC1 peptide microarrays were incubated with the antibody samples at concentrations of 1 μg/ml, 10 μg/ml, 100 μg/ml and 250 μg/ml in incubation buffer, followed by staining with secondary and control antibodies and reading with a LI-COR Odyssey Imaging System. The intensity of the points and peptide annotation were quantified with the PepSlide® Analyzer.
(§2) Conversely, incubation of a second copy of the microarray of CLIC1 peptides with the tmCLIC1omab monoclonal antibody gave an antibody response with the epitopes formed by peptides adjacent to the VELF consensus motif (SEQ ID NO:22), with all peptide lengths having low or moderate signal-to-noise ratios. Additional very weak interactions of the antibody with the HA control peptides were observed, perhaps because of a cross-reaction or a less specific antibody bond. With the peptides consisting of 10 and […], longer […] (10 aa) (SEQ ID NO:23) and […] (15 aa) (SEQ ID NO:24) consensus motifs were observed, the underlined letters of which form part of linker […] (SEQ ID NO:25) specific to the microarray.

For the next assay, the target named is T3, QVELFV sequence (human).
T3 peptide: QVELFV
Briefly: PEPperMAP linear peptide microarray. On the procedure: as §1, §2

Assay [2] has as its target T1, human CLIC1 protein located on the …. As to the kind of experiment: cell-based or functional assay.
The target of assay [3] is CLIC1 protein of microglial cells (BV-2), transmembrane form after stimulation (mouse, UniProt Q9Z1Q5 2-241). As to the kind of experiment: cell-based or functional assay.

The results in this text go back to US20240002499A1 (UNIVERSITA DEGLI STUDI DI MILANO, published 2024).

B1: class IgG2b antibody containing the heavy chain variable region SEQ ID NO:15 and the light chain variable region SEQ ID NO:16 (antibody, V domains shown)
VH: EVKLVESGGGLVKPGGSLKLSCAASGFTFSGYVMSWVRQTPDKRLEWVASISSGGSSYYSDRVKGRLTISRDNARNILFLQMSSLRSEDSAMYYCANGYNYAMDYWGQGTSVTVSS
VL: DIVMTQSHKFMSISVGDRVSITCKASQDVGTAVAWYQQKPGQSPQLLIYWASTWHTGVPDRFTGSGSGTDFTLTITNVQSEDLADYFCQQYKLFPLTFGAGTRLELK
notes: IgG2b
As for B1, the binding result in assay [1] is reported as “binds”.

B2: tmCLIC1omab (antibody, IgG1, V domains shown)
VH: EVMLVESGGGLVKPGGSLKLSCAASGFAFSNYAMSWIRQIPEKRLEWVATISTGGSSTFYPDSVKGRFTISRDNAKNTLYLQMSSLRSEDTAMYYCTRHAYEAWFAYWGQGTLVTVSA
VL: QIVLTQSPALMSASPGEKVTMTCSASSSVSYMYWYQQRPRSSPKPWIYLTSTLASGVPTRFSGSGSGTSYSLTISSMEAEDAATYYCQQWNSHPLTFGSGTKLEIK
notes: IgG1 class monoclonal antibody from mouse hybridoma; also called tmCLIComab; anti-tmCLIC1 monoclonal antibody
For the molecule B2, the binding result in the assay with QVELF sequence and with QVELFV sequence was “binds” each time. Moreover, the “ROS production over time in human glioblastoma cells (fluorescence)” value in assay [2] was approximately 5 fold. The “membrane current, patch-clamp in whole-cell configuration on BV2 microglial cells after β-amyloid” value in assay [3] is approximately 4 fold.
